According to US20240168030A1, “DIRECT FLUORESCENT GLYCAN LABELING” (BIO-TECHNE CORPORATION, priority 2019, published 2024):

What was measured:
Type in all cases: biochemical
[1] = Enzymatic synthesis of Le^x and sLe^x by glycan gel electrophoresis, substrate G0
Method: (§1) FIG. 21A. Schematic view of the enzymatic steps for Le^X and sLe^X synthesis on the antibody glycan G0. The glycan short names follow that of FIG. 10. FIG. 21B Kinetic comparison of galactosylation on G0 by B4GalT1, sialyation on G2 by ST3Gal4 and ST6Gal1, and fucosylation on A2[3] by FUT7. The reaction time for B4GalT1 was 10 minutes. The reaction time for ST3Gal4, FUT7 and ST6Gal1 was 5 hours. In each case, the labeling enzyme was subject to a 3-fold serial dilution starting from 1 μg each of B4GalT1, FUT7 and ST6Gal1, and 3 μg ST3Gal4. FIG. 21C. […] Reaction time for both cases was 20 minutes. […] FIG. 21D. […] Reaction time for both cases was 20 minutes.
(§2) For a typical labeling reaction, 1 μg to 5 μg target protein was mixed with 0.2 nmol fluorophore-conjugated GDP-fucose and 0.2 μg of a fucosyltransferase in 30μL 25 mM Tris pH 7.5, 10 mM MnCl2. The mixture was incubated at 37° C. for 30 minutes. […] To release labeled glycans from a glycoprotein, the sample was first denatured by heating at 95° C. for two minutes in the presence of 0.5% SDS and 80 mM β-mercaptoethanol and then renatured with 1% Triton X-100, and finally treated with PNGase F at 10:1 mass ratio at 37° C. for 20 minutes. To release glycans from antibody, a sample was directly treated with Endo S at 10:1 mass ratio at 37° C. for 20 minutes. All samples were separated by sodium dodecyl sulfate—polyacrylamide gel electrophoresis (SDS-PAGE) at […]. For separating labeled glycoproteins and antibodies, 4-20% gradient SDS gel was used. For separating labeled free glycans, 15% or 17% gel was used. After separation, all gels were imaged using a FluorChem M imager (ProteinSimple, Bio-Techne, Minneapolis, MN). For glycoproteins samples, the gel was also imaged with traditional methods such as silver staining or trichloroethanol (TCE) staining.
(§3) For sLe^x synthesis, G0 was first converted to G2 by B4GalT1, then converted to A2[3] by ST3Gal4, and finally converted to A2[3]F2 (carrier of sLe^x) by FUT7 (FIG. 21A). […]

[2] = Enzymatic synthesis of sLe^x by glycan gel electrophoresis, substrate A2[3]; details: for Activity based on reaction completion: completed product sLe^x
Method: as §1, §2, §3

[3] = test system: fetal bovine fetuin and asialofetuin; test: Labeling of fetuin and asialofetuin by fucosyltransferases with GDP-Cy5-Fuc; details: GDP-Cy5-Fuc donor, FIG. 9A
Method: FIG. 9A-FIG. 9B show exemplary results of probing substrate glycans of various fucosyltransferases on fetuin and asialofetuin. FIG. 9A. Probing substrate glycans of fucosyltransferases with guanosine 5′-diphosphate activated Cy5 conjugated fucose (GDP-Cy5-Fuc). […] FUT9 labeled itself (indicated by an arrow in the gel). FIG. 9B. Tolerance of Alexa-Fluor®555 (555), Alexa-Fluor®488 (488), and Cy5 by the indicated fucosyltransferases. All reactions were incubated at 37° C. for 30 minutes and then separated on SDS-PAGE and imaged with silver staining (upper panels) and fluorescent imager (lower panels). M, molecular marker.
For a typical labeling reaction, 1 μg to 5 μg target protein was mixed with 0.2 nmol GDP-f-Fuc and 0.2 μg of a fucosyltransferase in 30 μL buffer of 25 mM Tris pH 7.5, 10 mM MnCl2. The mixture was incubated at 37° C. for 30 minutes. The reaction was then separated by sodium dodecyl sulfate—polyacrylamide gel electrophoresis (SDS-PAGE) and the gel was directly imaged using a fluorescent imager FluorChem M ProteinSimple, Bio-Techne, Minneapolis, MN), followed by imaging with traditional protein imaging methods such as silver staining or trichloroethanol (TCE) staining.
The labeled samples were then separated on SDS-PAGE, followed by traditional protein gel imaging and fluorescent imaging.

[4] = Enzymatic synthesis of Le^x and sLe^x by glycan gel electrophoresis, substrate G2; details: substrate G2, completed product Le^x
Method: as §1, §2
For sLe^x synthesis, G0 was first converted to G2 by B4GalT1, then converted to A2[3] by ST3Gal4, and finally converted to A2[3]F2 (carrier of sLe^x) by FUT7 (FIG. 21A). During these steps, different amounts of enzymes, and multiple reaction times were applied to reveal the intermediate products.
Intermediate products are signs for the progress of each enzymatic step.

[5] = Le^a synthesis from FUT8-labeled G0 (G0f) quantified with response curve; details: for Completion of reaction in Le^a synthesis: FIG. 22B
Method: FIG. 22A-FIG. 22C show quantification of Le^a and its intermediate products. […] Lane 1 is labeled G0 (G0f) and lane 2 is labeled G2 (G2f). Lane 3 to 5 contain the intermediate reactions of converting G0f to the final Le^a carrying glycan A1 G1[3]F1f with the indicated enzymes. Lane 6 to lane 13 is a 2-fold serial dilution of G0f starting from 25 ng (19 pmol). The exposure time is 240 ms. The mass inputs of the serial dilution and all the band intensities were listed below the picture. FIG. 22C. The response curve of the serial dilution in FIG. 22B. The slope of the line represents the signal to mass ratio of G0f, which allows the quantification of the bands from lanes 1 to 5.
To evaluate the quantitative aspects of the glycan electrophoresis described in this article, a series of enzymatic reactions towards Le^a synthesis were run along with a 2-fold serial dilution of the FUT8-labeled antibody glycan G0 (G0f) (FIG. 22). Le^a was synthesized from G0f sequentially via the steps of galactosylation by B3GalT2, sialylation by ST3Gal3 and fucosylation by FUT3 (FIG. 22A). Major intermediate products of Le^a synthesis including G1[3]f, A1G1[3]f and A1 G1[3]F1f were observed (FIG. 22B). When the band intensities of the serial dilution of G0f in FIG. 22B were plotted against the masses of the glycan, a response curve with the linear coefficient of 0.9998 was obtained, with the slope of the curve representing the signal to mass ratio (FIG. 22C). The masses of the intermediates of Le^a synthesis were then calculated using the signal to mass ratio. […] In addition, the results also indicate that the sensitivity of the current method for glycan detection is below picomole level.

[6] = band masses from signal to mass ratio, FIG. 22

β-1,4-Galactosyltransferase 1 [B4GalT1]
Time for the complete conversion of G0 to G2 ([1]; FIG. 21B): 10 min | Activity based on reaction completion ([1]; substrate G0, completed product G2): 2.3 pmol/min/µg | Relative activity ([1]; substrate G0, product G2, normalized to FUT6 on sLe^x synthesis): 17

B1: FUT7: α-3 fucosyltransferase strictly active on sialyllactosamine (protein, UniProt Q11130 1-342, looked up)
Alpha-(1,3)-fucosyltransferase …: MNNAGHGPTRRLRGLGVLAGVALLAALWLLWLLGSAPRGTPAPQPTITILVWHWPFTDQPPELPSDTCTRYGIARCHLSANRSLLASADAVVFHHRELQTRRSHLPLAQRPRGQPWVWASMESPSHTHGLSHLRGIFNWVLSYRRDSDIFVPYGRLEPHWGPSPPLPAKSRVAAWVVSNFQERQLRARLYRQLAPHLRVDVFGRANGRPLCASCLVPTVAQYRFYLSFENSQHRDYITEKFWRNALVAGTVPVVLGPPRATYEAFVPADAFVHVDDFGSARELAAFLTGMNESRYQRFFAWRDRLRVRLFTDWRERFCAICDRYPHLPRSQVYEDLEGWFQA
Activity based on reaction completion [2]: 0.38 pmol/min/µg | Relative activity ([2]; product sLe^x, normalized to FUT6 on sLe^x synthesis): 2.8 | Which of fetuin and asialofetuin the fucosyltransferase labeled [3]: labeled fetuin

B2: FUT6: recombinant α-3 fucosyltransferase active on lactosamine and sialyllactosamine (protein, UniProt P51993 1-359, looked up)
4-galactosyl-N-acetylglucosami …: MDPLGPAKPQWSWRCCLTTLLFQLLMAVCFFSYLRVSQDDPTVYPNGSRFPDSTGTPAHSIPLILLWTWPFNKPIALPRCSEMVPGTADCNITADRKVYPQADAVIVHHREVMYNPSAQLPRSPRRQGQRWIWFSMESPSHCWQLKAMDGYFNLTMSYRSDSDIFTPYGWLEPWSGQPAHPPLNLSAKTELVAWAVSNWGPNSARVRYYQSLQAHLKVDVYGRSHKPLPQGTMMETLSRYKFYLAFENSLHPDYITEKLWRNALEAWAVPVVLGPSRSNYERFLPPDAFIHVDDFQSPKDLARYLQELDKDHARYLSYFRWRETLRPRSFSWALAFCKACWKLQEESRYQTRGIAAWFT
Activity based on reaction completion [4]: 2.3 pmol/min/µg | Activity based on reaction completion [2]: 13.5 pmol/min/µg | Which of fetuin and asialofetuin the fucosyltransferase labeled [3]: labeled both fetuin and asialofetuin

B3: B3GalT2: galactosyltransferase used for galactosylation in Le^a synthesis (protein, UniProt O43825 1-422, looked up)
Beta-1,3-galactosyltransferase …: MLQWRRRHCCFAKMTWNAKRSLFRTHLIGVLSLVFLFAMFLFFNHHDWLPGRAGFKENPVTYTFRGFRSTKSETNHSSLRNIWKETVPQTLRPQTATNSNNTDLSPQGVTGLENTLSANGSIYNEKGTGHPNSYHFKYIINEPEKCQEKSPFLILLIAAEPGQIEARRAIRQTWGNESLAPGIQITRIFLLGLSIKLNGYLQRAILEESRQYHDIIQQEYLDTYYNLTIKTLMGMNWVATYCPHIPYVMKTDSDMFVNTEYLINKLLKPDLPPRHNYFTGYLMRGYAPNRNKDSKWYMPPDLYPSERYPVFCSGTGYVFSGDLAEKIFKVSLGIRRLHLEDVYVGICLAKLRIDPVPPPNEFVFNHWRVSYSSCKYSHLITSHQFQPSELIKYWNHLQQNKHNACANAAKEKAGRYRHRKLH
Share of G0f converted to G1[3]f [5, 6]: 53% | Share of G0f converted to G2[3]f [5, 6]: 9%

B4: ST3Gal3: recombinant human sialyltransferase that generates α2,3-sialylated N-glycans (protein, UniProt Q11203 1-375, looked up)
CMP-N-acetylneuraminate-beta-1 …: MGLLVFVRNLLLALCLFLVLGFLYYSAWKLHLLQWEEDSNSVVLSFDSAGQTLGSEYDRLGFLLNLDSKLPAELATKYANFSEGACKPGYASALMTAIFPRFSKPAPMFLDDSFRKWARIREFVPPFGIKGQDNLIKAILSVTKEYRLTPALDSLRCRRCIIVGNGGVLANKSLGSRIDDYDIVVRLNSAPVKGFEKDVGSKTTLRITYPEGAMQRPEQYERDSLFVLAGFKWQDFKWLKYIVYKERVSASDGFWKSVATRVPKEPPEIRILNPYFIQEAAFTLIGLPFNNGLMGRGNIPTLGSVAVTMALHGCDEVAVAGFGYDMSTPNAPLHYYETVRMAAIKESWTHNIQREKEFLRKLVKARVITDLSSGI
Completion of reaction in Le^a synthesis [5]: almost completed

B5: FUT3: fucosyltransferase used for fucosylation in Le^a synthesis (protein, UniProt P21217 1-361, looked up)
3-galactosyl-N-acetylglucosami …: MDPLGAAKPQWPWRRCLAALLFQLLVAVCFFSYLRVSRDDATGSPRAPSGSSRQDTTPTRPTLLILLRTWPFHIPVALSRCSEMVPGTADCHITADRKVYPQADMVIVHHWDIMSNPKSRLPPSPRPQGQRWIWFNLEPPPNCQHLEALDRYFNLTMSYRSDSDIFTPYGWLEPWSGQPAHPPLNLSAKTELVAWAVSNWKPDSARVRYYQSLQAHLKVDVYGRSHKPLPKGTMMETLSRYKFYLAFENSLHPDYITEKLWRNALEAWAVPVVLGPSRSNYERFLPPDAFIHVDDFQSPKDLARYLQELDKDHARYLSYFRWRETLRPRSFSWALDFCKACWKLQQESRYQTVRSIAAWFT
Completion of reaction in Le^a synthesis [5]: almost completed
